The text below walks through data of publication PMC5362899, “Structural insights into the nucleotide base specificity of P2X receptors” (Scientific Reports, 2017).

What is called stoichiometry N is the number of molecules, sites or subunits per partner or assembly.

In this test the target is zebrafish P2X4 construct ΔP2X4-C (ΔN27/ΔC24/N78K/N187R) (zebrafish) (UniProt F8W463). The test is described as follows: crystal structure; ΔP2X4-C (2 mg/ml) with 3 mM CTP; crystals grown at 4 °C by cross-seeding in 20-26% PEG 2000, 300 mM Mg(NO3)2, 100 mM Tris pH 8.0; 2.8 Å.

In turn, “zebrafish P2X4 construct ΔP2X4-C (ΔN27/ΔC24/N78K/N187R) (from UniProt F8W463 28-365) (receptor)” yielded a stoichiometry N of 3.
